Experimental data: patent publication EP3816180A1 (Max-Planck-Gesellschaft zur Förderung der Wissenschaften …, dated 2021)

Biological target: T1, cpHaloΔ9mer
T1 construct: Large fragment of split, circularly permuted HaloTag7; Made in E. coli; also called cpHalo_9mer; cpHalo156-141
Assay: ITC; 9mer peptide (30 mM) titrated into cpHaloΔ9mer (0.6 mM), HEPES 50 mM pH 7.3, NaCl 50 mM; three independent measurements

T1 sequence (chain, as listed by the source mutant): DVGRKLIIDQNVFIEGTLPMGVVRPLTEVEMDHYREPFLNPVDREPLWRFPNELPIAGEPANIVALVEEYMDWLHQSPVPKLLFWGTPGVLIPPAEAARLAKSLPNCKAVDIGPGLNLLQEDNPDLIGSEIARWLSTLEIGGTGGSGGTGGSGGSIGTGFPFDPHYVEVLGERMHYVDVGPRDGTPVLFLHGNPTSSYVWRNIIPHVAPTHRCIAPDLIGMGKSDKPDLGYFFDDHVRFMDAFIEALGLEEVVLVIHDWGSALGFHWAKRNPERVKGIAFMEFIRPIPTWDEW

B1: 9mer peptide (peptide)
peptide: ARETFQAFR
notes: Free peptide titrated in ITC; also called PEP1
  Kd: 5.3 mM
